Experimental findings from patent publication US20240385191A1 (NORDIC BIOSCIENCE A S, published 2024) are described below.

The labels stand for the following.
B1: monoclonal antibody targeting PRO-C20 (antibody produced by the best performing clone) (antibody, V domains shown)
VH: QIQLMQSGPELKKPGETVKISCKASGYPFTDYSMHWVKQAPGKGLKWMGWINTETGEPTYADGFKGRFAFSLETSASTAYLKINNLKNDDTATYFCARGPYWGQGTLVTVSA
VL: DVLLTQTPLSLPVSLGDQASISCRSSQSIVHNNGKIYLEWFLQKPGQSPKALIQKVSNRFSGVPDRFSGSGSGTDFTLKISRVEAEDLGVYYCFQGSHVPYTFGGGTKLEIKR
notes: Mouse hybridoma antibody (Balb/C mice), purified on protein G and HRP-labelled in the final ELISA; also called HRP-labelled monoclonal antibody; the monoclonal antibody

In assay [1] the target is T1, non-sense coater peptide Biotin-SHAHQRTGGN
T1 construct: Control coater on the streptavidin plate
T1 peptide: Biotin-SHAHQRTGGN
As to the kind of experiment: ELISA with the non-sense biotinylated peptide as coater on a streptavidin plate. The protocol:
Several optimizations were made to the ELISA including the choice of assay buffer, incubation time and temperature as well as concentrations of antibody and peptides. […] After washing five times with washing buffer (25 mM Tris, 50 mM NaCl, pH 7.2), 20 μL/well of sample was added in duplicates followed by 100 μL/well of 50 ng/mL HRP-labelled monoclonal antibody in assay buffer and incubated for 1 hour at 20° C. with shaking at 300 RPM. After a second washing cycle, 100 μL/well of TMB was added and incubated for 15 minutes in darkness at 20° C. with shaking at 300 RPM. The reaction was stopped by adding 100 μL/well of 1% H₂SO₄. Absorbance was measured at 450 nm with 650 nm as reference. To generate a standard curve, 20 μL/well of 50 ng/ml standard peptide ([…] (SEQ ID NO: 6)), serially diluted two-fold, was added to appropriate wells and a four-parametric logistic regression model was used to fit a curve. […]
Antibody specificity was evaluated by the inhibition of signal by two-fold serial dilutions of the standard peptide ([…] (SEQ ID NO: 6)), elongated peptide ([…] (SEQ ID NO: 2)), truncated peptide ([…] (SEQ ID NO: 3)) as well as a non-sense standard peptide ([…] (SEQ ID NO: 8)) and a non-sense coater peptide (Biotin-[…] (SEQ ID NO: 9)).

In assay [2] the target is T2, non-sense KLH-conjugated peptide IRQCPDRTYG-GGC-KLH.
T2 peptide: IRQCPDRTYGGGC(KLH)
As to the kind of experiment: preliminary competitive ELISA for clone selection.

Assay [3] has as its target B1. As to the kind of experiment: competitive ELISA: standard peptide against coated Biotin-… for the HRP-labelled antibody. The method, then:
After washing five times with washing buffer (25 mM Tris, 50 mM NaCl, pH 7.2), 20 μL/well of sample was added in duplicates followed by 100 μL/well of 50 ng/mL HRP-labelled monoclonal antibody in assay buffer and incubated for 1 hour at 20° C. with shaking at 300 RPM. After a second washing cycle, 100 μL/well of TMB was added and incubated for 15 minutes in darkness at 20° C. with shaking at 300 RPM. The reaction was stopped by adding 100 μL/well of 1% H₂SO₄. Absorbance was measured at 450 nm with 650 nm as reference. […]
Assay variation was tested by running ten independent run of the assay using ten quality control samples in double determinations. […] Intra-assay variation was calculated as the mean coefficient of variance (CV %) between the double determinations on each of the ten runs. Inter-assay variation was calculated as the overall CV % for all determinations on the ten runs. Lower-and upper-limit of the measurement range (LLMR and ULMR) were determined as the concentrations that denotes the limits of the linear range of the assay. Lower limit of detection was calculated as the mean interpolated concentration of 21 blank samples, only containing assay buffer, plus three standard deviations. Upper limit of detection was calculated as the mean interpolated concentration of standard peptide corresponding to the highest concentration of the standard curve minus three standard deviations.

No end group written: not given here. *: point of attachment. Biotin = O=C1N[C@H]2[C@H](CS[C@H]2CCCCC(=O)*)N1; KLH = keyhole limpet hemocyanin

As a reminder, the IC50 is the concentration that gives 50% inhibition. A lower IC50 goes with higher potency.

For B1, the binding result in assay [1] and in assay [2] was “no binding” each time.

B2: standard peptide RHLEGRGEPGAVGQMGSPGQQGASTQGLWE (peptide)
peptide: RHLEGRGEPGAVGQMGSPGQQGASTQGLWE
notes: Synthetic 30-mer corresponding to the C-terminus of type XX collagen; also called 30 amino-acid variant
For B2, the 50% inhibitory concentration (IC50) in assay [3] was found to be 5.59 ng/mL.
